The results in this text go back to the Immune Epitope Database (IEDB).

Experiment [1] addresses HLA-B*07:02. Put plainly: IEDB peptide-MHC binding, purified MHC/competitive/fluorescence; filed as Kd, often an IC50 or EC50 that approximates it; ≥ and ≤ were set here for values at or beyond the usual limits of such assays. The conditions noted are these: source organism: Influenza A virus (A/swine/Italy/1509-6/97(H1N1)).
The target of another experiment is HLA-C*06:02. The experiment is described as follows: IEDB peptide-MHC binding, purified MHC/direct/fluorescence; filed as Kd, often an IC50 or EC50 that approximates it; ≥ and ≤ were set here for values at or beyond the usual limits of such assays. The note with it: source organism: Influenza A virus (A/swine/Italy/1509-6/97(H1N1)).
Another experiment concerns the target HLA-C*14:02. Described as above. The conditions noted are these: source organism: Influenza A virus (A/swine/Italy/1509-6/97(H1N1)).
The target of experiment [2] is HLA-B*46:01. The experiment is described as follows: IEDB peptide-MHC binding, purified MHC/competitive/fluorescence; filed as Kd, often an IC50 or EC50 that approximates it; ≥ and ≤ were set here for values at or beyond the usual limits of such assays. The note with it: source organism: Escherichia coli 536.
A further experiment concerns the target HLA-C*04:01. Put plainly: IEDB peptide-MHC binding, purified MHC/direct/fluorescence; filed as Kd, often an IC50 or EC50 that approximates it; ≥ and ≤ were set here for values at or beyond the usual limits of such assays.
A further experiment has as its target HLA-C*03:03. The description is as above.
The next experiment concerns the target HLA-C*12:03. Described as above.
For another experiment, the target named is HLA-A*02:02. Put plainly: IEDB peptide-MHC binding, purified MHC/competitive/radioactivity; filed as Kd, often an IC50 or EC50 that approximates it; ≥ and ≤ were set here for values at or beyond the usual limits of such assays. The conditions noted are these: source organism: Vaccinia virus WR.
For the next experiment, the target named is HLA-A*02:03. The experiment is described as above. The note with it: source organism: Vaccinia virus WR.
A further experiment addresses HLA-A*02:06. The experiment is described as above. The note with it: source organism: Vaccinia virus WR.
Another experiment has as its target HLA-A*69:01. Put plainly: IEDB peptide-MHC binding, purified MHC/direct/fluorescence; filed as Kd, often an IC50 or EC50 that approximates it; ≥ and ≤ were set here for values at or beyond the usual limits of such assays.
In a further experiment the target is HLA-C*05:01. Described as above. The conditions noted are these: source organism: Variola virus.
The next experiment addresses HLA-B*39:01. Put plainly: IEDB peptide-MHC binding, purified MHC/competitive/fluorescence; filed as Kd, often an IC50 or EC50 that approximates it; ≥ and ≤ were set here for values at or beyond the usual limits of such assays. The conditions noted are these: source organism: Francisella tularensis subsp. tularensis FSC198.
Another experiment concerns the target HLA-B*15:09. The experiment is described as above. The note with it: source organism: Francisella tularensis subsp. tularensis FSC198.
The target of experiment [3] is HLA-B*48:01. The experiment is described as above. The note with it: source organism: Francisella tularensis subsp. tularensis FSC198.
Experiment [4] has as its target HLA-B*15:17. The experiment is described as above. The conditions noted are these: source organism: Francisella tularensis subsp. tularensis FSC198.
A further experiment addresses HLA-B*40:01. Put plainly: IEDB peptide-MHC binding, purified MHC/direct/fluorescence; filed as Kd, often an IC50 or EC50 that approximates it; ≥ and ≤ were set here for values at or beyond the usual limits of such assays.
In a further experiment the target is HLA-B*57:01. The description is as above.
The next experiment concerns the target HLA-A*01:01. Described as above.
The next experiment concerns the target HLA-B*08:03. The experiment is described as above. The conditions noted are these: source organism: Francisella tularensis subsp. tularensis FSC033.
Experiment [5] has as its target HLA-A*11:01. The description is as above. The conditions noted are these: source organism: Francisella tularensis subsp. holarctica LVS.
In another experiment the target is HLA-B*58:01. The experiment is described as above.
The target of experiment [6] is HLA-B*07:02. The experiment is described as above. The conditions noted are these: source organism: Francisella tularensis subsp. holarctica LVS.
The target in experiment [7] is HLA-B*27:05. Described as above. The note with it: source organism: Francisella tularensis subsp. holarctica LVS.
For the next experiment, the target named is HLA-B*44:02. Described as above. The conditions noted are these: source organism: Francisella tularensis subsp. holarctica LVS.
The target in a further experiment is HLA-A*26:01. The description is as above.
The target in a further experiment is HLA-A*26:03. Described as above. The conditions noted are these: source organism: Francisella tularensis subsp. tularensis FSC033.
The target of another experiment is HLA-A*31:01. The description is as above.
For a further experiment, the target named is HLA-A*02:01. The experiment is described as above.
The next experiment has as its target HLA-B*08:02. The description is as above. The note with it: source organism: Francisella tularensis subsp. tularensis FSC033.
In experiment [8] the target is HLA-A*11:01. Put plainly: IEDB peptide-MHC binding, purified MHC/competitive/fluorescence; filed as Kd, often an IC50 or EC50 that approximates it; ≥ and ≤ were set here for values at or beyond the usual limits of such assays. The conditions noted are these: source organism: Escherichia coli APEC O1.
Experiment [9] concerns the target HLA-B*27:05. The experiment is described as above. The conditions noted are these: source organism: Escherichia coli APEC O1.
The next experiment addresses HLA-B*51:01. The experiment is described as follows: IEDB peptide-MHC binding, purified MHC/direct/fluorescence; filed as Kd, often an IC50 or EC50 that approximates it; ≥ and ≤ were set here for values at or beyond the usual limits of such assays. The conditions noted are these: source organism: Bacillus anthracis.
The next experiment addresses HLA-B*18:01. The experiment is described as above. The conditions noted are these: source organism: Bacillus anthracis.
In experiment [10] the target is HLA-B*48:01. The experiment is described as above. The conditions noted are these: source organism: Bacillus anthracis.
In experiment [11] the target is HLA-B*15:17. The experiment is described as above. The note with it: source organism: Bacillus anthracis.
A further experiment deals with HLA-B*15:01. The description is as above. The note with it: source organism: Bacillus anthracis.
The target in another experiment is HLA-A*03:01. The experiment is described as above. The note with it: source organism: Bacillus anthracis.
Experiment [12] addresses HLA-B*46:01. Described as above. The note with it: source organism: Bacillus anthracis.
A further experiment deals with HLA-A*26:02. The experiment is described as above. The note with it: source organism: Influenza A virus(A/swine/Shandong/fNY/2003(H9N2)).
The next experiment addresses HLA-C*08:02. The experiment is described as above.
For another experiment, the target named is HLA-A*29:02. Put plainly: IEDB peptide-MHC binding, purified MHC/competitive/fluorescence; filed as Kd, often an IC50 or EC50 that approximates it; ≥ and ≤ were set here for values at or beyond the usual limits of such assays. The conditions noted are these: source organism: Bacillus anthracis str. A0488.
Another experiment deals with HLA-A*24:03. The experiment is described as follows: IEDB peptide-MHC binding, purified MHC/direct/fluorescence; filed as Kd, often an IC50 or EC50 that approximates it; ≥ and ≤ were set here for values at or beyond the usual limits of such assays. The note with it: source organism: Mycobacterium tuberculosis.
Setting [13] is: source organism: Escherichia coli 536.
Where [14] appears, read: source organism: Francisella tularensis subsp. holarctica LVS.
Setting [15] is: source organism: Bacillus anthracis.
The mark [16] stands for this setting: source organism: Yellow fever virus.

On to ATYQRTRAL, for which the figures for the equilibrium dissociation constant (Kd) in the experiment with HLA-B*07:02 [1], with HLA-C*06:02 and in the experiment with HLA-C*14:02 were 0.197 µM, 0.075 µM and 0.246 µM, respectively.
As for FMFDSDEAM, the Kd with HLA-B*46:01 [2] was 0.0292 µM; in the experiment with HLA-C*04:01 (setting [13]), no less than 20 µM; with HLA-C*03:03 (setting [13]) it was 0.005 µM; in the experiment with HLA-C*12:03 (setting [13]), 0.174 µM.
For the sequence KVDDTFYYV, the Kd with HLA-A*02:02 was 1.85 µM; in the experiment with HLA-A*02:03, no less than 78.1 µM; in the experiment with HLA-A*02:06 it was no less than 34.3 µM; in the experiment with HLA-A*69:01 (source organism: Camelpox virus CMS), 0.002 µM; with HLA-C*03:03 (source organism: Variola virus), no less than 20 µM; in the experiment with HLA-C*05:01 it was 0.003 µM.
REIGDISYL: the Kd with HLA-B*39:01 was 0.309 µM; in the experiment with HLA-B*15:09, 2 µM; with HLA-B*48:01 [3] it was no less than 20 µM; with HLA-B*15:17 [4], no less than 20 µM; with HLA-B*40:01 (setting [14]), no more than 0.001 µM; in the experiment with HLA-B*57:01 (setting [14]), no less than 20 µM. Besides, the dissociation constant Kd in the experiment with HLA-A*01:01 (setting [14]), with HLA-B*08:03, with HLA-A*69:01 (setting [14]), with HLA-A*11:01 [5], with HLA-B*58:01 (setting [14]) and in the experiment with HLA-B*07:02 [6] was no less than 20 µM in each case. Also, the dissociation constant Kd with HLA-B*27:05 [7], in the experiment with HLA-B*44:02, in the experiment with HLA-A*26:01 (source organism: Francisella tularensis subsp. tularensis FSC033), in the experiment with HLA-A*26:03, with HLA-A*31:01 (setting [14]) and with HLA-A*02:01 (setting [14]) was no less than 20 µM each time. This sequence yielded a dissociation constant (Kd) with HLA-B*08:02 of no less than 20 µM.
With TPRIANRLL, the Kd in the experiment with HLA-A*11:01 [8] was 1.37 µM; in the experiment with HLA-B*27:05 [9], no less than 20 µM; in the experiment with HLA-B*51:01, no less than 20 µM; with HLA-B*40:01 (setting [15]) it was no less than 20 µM; in the experiment with HLA-B*57:01 (setting [15]) it was no less than 20 µM; with HLA-A*01:01 (setting [15]), no less than 20 µM. The dissociation constant (Kd) with HLA-B*18:01, in the experiment with HLA-A*69:01 (setting [15]), with HLA-B*48:01 [10], in the experiment with HLA-B*58:01 (setting [15]), with HLA-B*15:17 [11] and in the experiment with HLA-B*15:01 was no less than 20 µM each time. Further, the Kd with HLA-A*03:01, in the experiment with HLA-A*31:01 (setting [15]), with HLA-B*46:01 [12] and in the experiment with HLA-A*02:01 (setting [15]) was no less than 20 µM in each case.
For the sequence TTVDHMAII, the values for the Kd with HLA-A*26:02 and with HLA-A*26:01 (source organism: Influenza A virus (A/chicken/Beijing/nl/2002(H9N2))) were 0.012 µM and 0.0678 µM, respectively.
For the sequence YMPDVLEKL, the Kd in the experiment with HLA-C*08:02 (setting [16]), in the experiment with HLA-C*03:03 (setting [16]) and in the experiment with HLA-C*12:03 (setting [16]) was no less than 20 µM each time.
With YTVQGAGLM, the Kd with HLA-A*29:02 is 0.026 µM; with HLA-C*08:02 (source organism: Bacillus anthracis str. A0488) it was no less than 20 µM.
As to YYIIETEHL, the Kd in the experiment with HLA-C*04:01 (source organism: Mycobacterium tuberculosis H37Ra) was no less than 20 µM; in the experiment with HLA-A*24:03, 0.0002 µM.

What is called Kd is the equilibrium constant for the complex coming apart.
